The source of these data is patent US20230159654A1 (INTERNATIONAL DRUG DEVELOPMENT BIOTECH, published 2023).

Assay [1] concerns the target T1, human Clq (human, UniProt P02745 23-245; P02746 28-253; P02747 29-245).
T1 construct: also called Clq complement; C1q
Nature of the assay: ELISA, MAb coated on plate, human Clq in solution, detected with anti-human Clq peroxidase conjugate. As for the experimental part:
(§1) The Binding of Human Clq to MAbs was assessed by an ELISA binding assay. The 96-well plates (Nunc) were coated overnight at 4° C. with varying MAb concentrations. After washing, the plates were blocked with PBS-5% BSA for 1 h, and incubated for 1 h with 0.2 μg/ml of recombinant human Clq (Abd Serotec) or 2.5 μl of natural human complement (Sigma). Then, 100 μl of a 1/500 dilution of sheep anti-human Clq peroxidase-conjugated Ab (Abd Serotec) added and incubated for 1 h. The plates were developed with 100 μl per well of TMB substrate (Uptima Interchim). After H₂SO₄ addition, the OD was measured at 450 nm/630 nmusing a MRX II microplate reader.

For assay [2], the target named is T1, human Clq. Nature of the assay: ELISA, MAb coated on plate, human Clq in solution, detected with anti-human Clq peroxidase conjugate; chR007 Fc0 is the weaker reference. As for the experimental part:
as §1

T1 sequence (P02745 23-245 limits assumed, chain 1 of 3): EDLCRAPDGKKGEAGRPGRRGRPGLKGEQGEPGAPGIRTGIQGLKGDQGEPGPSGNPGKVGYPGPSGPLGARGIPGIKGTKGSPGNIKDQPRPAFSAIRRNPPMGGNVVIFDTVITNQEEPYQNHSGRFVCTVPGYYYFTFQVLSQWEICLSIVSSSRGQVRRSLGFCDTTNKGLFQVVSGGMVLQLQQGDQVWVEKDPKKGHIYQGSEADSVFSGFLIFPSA
T1 sequence (P02746 28-253 limits assumed, chain 2 of 3): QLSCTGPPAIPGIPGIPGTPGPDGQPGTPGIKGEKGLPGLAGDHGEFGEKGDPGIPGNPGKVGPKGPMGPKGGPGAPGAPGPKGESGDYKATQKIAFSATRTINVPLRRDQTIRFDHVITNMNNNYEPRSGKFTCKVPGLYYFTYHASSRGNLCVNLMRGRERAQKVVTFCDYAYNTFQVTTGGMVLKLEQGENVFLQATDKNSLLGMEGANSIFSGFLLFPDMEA
T1 sequence (P02747 29-245 limits assumed, chain 3 of 3): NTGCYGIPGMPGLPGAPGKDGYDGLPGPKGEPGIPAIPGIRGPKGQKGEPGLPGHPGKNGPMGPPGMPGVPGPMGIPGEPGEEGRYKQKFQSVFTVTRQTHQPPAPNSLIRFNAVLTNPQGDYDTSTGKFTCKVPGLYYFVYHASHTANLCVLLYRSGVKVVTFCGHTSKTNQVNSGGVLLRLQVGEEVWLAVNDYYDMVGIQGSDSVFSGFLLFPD

B1: chR007 Fc24 (antibody, human IgG1, kappa)
heavy: EVKLEESGGGLVQPGGSMKLSCVASGFTFSNYWMNWVRQSPEKGLEWVAEIRLKSNNYATHYAESVKGRFTISRDDSRSSVYLQMNNLRAEDTGIYYCTRDWEFAYWGQGTLVTVSSASTKGPSVFPLAPSSKSTSGGTAALGCLVKDYFPEPVTVSWNSGALTSGVHTFPAVLQSSGLYSLSSVVTVPSSSLGTQTYICNVNHKPSNTKVDKKVEPKSCDKTHTCPPCPAPELLGGPSVFLLPPKPKDTLMISRTPEVTCVVVDVSHEDPEVKFNWYVDGVEVHNAKTKPPEEQYNSTLRVVSLLTVLHQDWLNGKEYKCKVSNAALPAPIAKTISKAKGQPREPQVYTLPPSRDELTKNQVSLTCLVKGFYPSDIAVEWESNGQPENNYKTTPLVLDSDGSFFLYSKLTVDKSRWQQGNVFSCSVMHEALHNHYTQKSLSLSPGK
light: DIVLTQSPASLAVSLGQRATISCRTSESVDNYGSSSMNWFQQKPGQPPKLLIYRASNLDSGIPARFSGSGSRSDFTLTINPVEADDVATYYCQQSNEDLPYTFGGGTKLEIKRTVAAPSVFIFPPSDEQLKSGTASVVCLLNNFYPREAKVQWKVDNALQSGNSQESVTEQDSKDSTYSLSSTLTLSKADYEKHKVYACEVTHQGLSSPVTKSFNRGEC
notes: also called chimeric chR007 Fc24
Consider B1, for which the binding result with human Clq [1] is given as “binds”.

B2: chR007 Fc0 (antibody, human IgG1, kappa)
heavy: not shown
light: DIVLTQSPASLAVSLGQRATISCRTSESVDNYGSSSMNWFQQKPGQPPKLLIYRASNLDSGIPARFSGSGSRSDFTLTINPVEADDVATYYCQQSNEDLPYTFGGGTKLEIKRTVAAPSVFIFPPSDEQLKSGTASVVCLLNNFYPREAKVQWKVDNALQSGNSQESVTEQDSKDSTYSLSSTLTLSKADYEKHKVYACEVTHQGLSSPVTKSFNRGEC
notes: Chimeric anti-CD5 IgG1 with native human IgG1 Fc; also called native chimeric MAb chR007 Fc0
Take B2: in the assay with human Clq [2], the binding result is recorded as “binds”.

B3: humanized 7Hz116 Fc24 (antibody, human IgG1, kappa, V domains shown)
VH: EVQLVESGGGLVQPGGSLKLSCAASGFTFSNYWMHWVRQASGKGLEWVAEIRSKANSYATAYAASVKGRFTISRDDSKNTAYLQMNSLKTEDTAVYYCTRDWEFAYWGQGTLVTVSS
VL: DIVMTQSPDSLAVSLGERATINCKSSQSVDNYGSSSLAWYQQKPGQPPKLLIYRASNLDSGVPDRFSGSGSGTDFTLTISSVQAEDVAVYYCQQSNEDLPYTFGQGTKLEIKR
In the case of B3, the binding result with human Clq [1] is reported as “binds”.
